We go through four compounds from patent US20180371044A1, “PEPTIDOMIMETIC MACROCYCLES” (Aileron Therapeutics, Inc., priority 2015, published 2018).

Where a SMILES comes first, the peptide text is derived from it. Bridges are numbered along the chain shown (N, C = ends). [ ]: non-standard residue; d: D form. NMeY = CN[C@@H](Cc1ccc(O)cc1)C(=O)O; S5 = C=CCCC[C@](C)(N)C(=O)O; Nle = CCCC[C@H](N)C(=O)O Bounds are passed on as bounds.

In series [1] the target is T1, VIPR1 (Vasointestinal Peptide Receptor 1) (Homo sapiens, UniProt P32241).
T1 construct: host or cells: CHO-K1 (cAMP Hunter eXpress VIPR1 CHO-K1 GPCR assay kit)
T1 sequence (P32241 31-457): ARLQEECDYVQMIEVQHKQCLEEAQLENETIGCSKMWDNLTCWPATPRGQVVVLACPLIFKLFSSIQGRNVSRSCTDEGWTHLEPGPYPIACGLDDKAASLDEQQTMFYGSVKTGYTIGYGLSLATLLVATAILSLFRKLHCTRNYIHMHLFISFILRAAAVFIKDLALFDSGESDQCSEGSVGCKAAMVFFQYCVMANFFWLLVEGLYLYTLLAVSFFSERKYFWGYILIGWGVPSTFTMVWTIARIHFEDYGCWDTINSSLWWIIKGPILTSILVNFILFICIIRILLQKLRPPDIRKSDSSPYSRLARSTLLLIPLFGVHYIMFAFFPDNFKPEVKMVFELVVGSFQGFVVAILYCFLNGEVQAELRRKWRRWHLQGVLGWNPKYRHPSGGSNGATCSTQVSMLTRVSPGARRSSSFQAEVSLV
In words: DiscoverX cAMP Hunter eXpress VIPR1 CHO-K1 GPCR assay. It counts as cell-based. To be noted: VIPR1 CHO-K1 cells. An excerpt: DiscoverX cAmP Hunter eXpress VIPRI CHO-K1 GPCR and GHRHR CHO-K1 GPCR assays kits were used. The DiscoverX kits contain naturally coupled GPCR cell lines designed to detect GPCR signaling through second messenger activation. This signaling involves a membrane bound enzyme called adenylate cyclase. […] receptors modulate cAMP by either inhibiting or stimulating adenylate cyclase, respectively. The DiscoverX cell lines included in the kits utilize the natural coupling status of the GPCR to monitor activation of […] receptors. Following ligand stimulation, the functional status of the GPCR is monitored by measuring cellular cAMP levels using a homogeneous, gain of signal competitive immunoassay based on Enzyme Fragment Complementation (EFC). The amount of EFC is measured by analysis with a fluorescent plate reader.
On the day before the assay, the DiscoverX cell lines were defrosted, plated into 384 well plates and allowed to incubate overnight. All the samples were diluted to 2 mM using 100% DMSO. The vials were sonicated and centrifuged to assure all peptides went into solution. The final volumes were small, 80-200 μl. An 80% purity and peptide content was assumed for all samples and dilutions were based on the molecular weights. On the day of the assay, the samples were diluted to 200 μM in water and then to 4 μM in DiscoverX assay buffer (supplemented with 0.1% BSA). Serial dilutions were performed on assay day, 16 dilutions from 1000 nM were run side by side in duplicate for each peptide for study. The assays were performed in the 384 well plates with the assistance of a CyBio Bi-Well 384 channel liquid handling robot. The samples were analyzed on a Tecan Ultra Evolution plate reader according to DiscoverX guidelines. The EC50 values were determined using GraphPad Prism software. The EC50 value is defined as the concentration of agonist that provokes a response halfway between the baseline and maximum response.
DiscoverX™ cAmP Hunter eXpress VIPR1 CHO-K1 GPCR and GHRHR CHO-K1 GPCR assay kits were used. On the day before the assay, the DiscoverX™ cell lines were defrosted, plated into 384 well plates and allowed to incubate overnight. All the samples were diluted to 2 mM using 100% DMSO. The vials were sonicated and centrifuged to assure all peptides went into solution. The final volumes were small, 80-200 μl. An 80% purity and peptide content was assumed for all samples and dilutions were based on the molecular weights. On the day of the assay, the samples were diluted to 200 μM in water and then to 4 μM in DiscoverX™ assay buffer (supplemented with 0.1% BSA). Serial dilutions were performed on assay day, 16 dilutions from 1000 nM were run side by side in duplicate for each peptide for study. The assays were performed in the 384 well plates with the assistance of a CyBio™ Bi-Well 384 channel liquid handling robot. The samples were analyzed on a Tecan™ Ultra Evolution plate reader according to DiscoverX™ guidelines. The EC50 values were determined using GraphPad™ Prism software. The EC50 value is defined as the concentration of agonist that provokes a response halfway between the baseline and maximum response. (+=>25 nM; ++=>10-25 nM; +++=>1-10 nM; ++++=>0.1-1 nM; +++++=<0.1 nM). […]

The nature of a further series: Plasma compatibility. The series is classed as physicochemical. How it is done: The plasma compatibility of exemplary peptidomimetic macrocycles was also determined. Peptidomimetic macrocycles with a plasma compatability value (PC) that is greater than 0.1 were determined as being plasma compatible.
In series [2] the target is T2, human GHRH receptor (hGHRHR) (Homo sapiens, UniProt Q02643).
T2 construct: expressed in transfected cells; host or cells: Human 293 cells
T2 sequence (Q02643 23-423): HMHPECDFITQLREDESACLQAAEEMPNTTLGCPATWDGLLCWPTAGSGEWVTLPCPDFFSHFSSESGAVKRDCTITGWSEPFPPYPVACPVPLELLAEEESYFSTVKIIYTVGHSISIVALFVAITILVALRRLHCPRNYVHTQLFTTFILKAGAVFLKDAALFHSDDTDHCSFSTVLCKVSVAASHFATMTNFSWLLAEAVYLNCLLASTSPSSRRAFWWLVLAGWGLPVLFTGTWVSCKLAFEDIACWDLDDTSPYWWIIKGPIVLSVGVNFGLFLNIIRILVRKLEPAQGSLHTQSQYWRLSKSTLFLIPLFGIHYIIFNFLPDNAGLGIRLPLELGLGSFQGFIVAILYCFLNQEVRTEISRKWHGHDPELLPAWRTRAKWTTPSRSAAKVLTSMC
Kind of series: GHRHR agonism measured by cAMP (HTRF) in human 293 cells expressing hGHRHR.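 Note: receptor expressed transiently or stably, cells stimulated in serum-free medium, EC50 from a non-linear dose-response fit, maximal response defined by reference GHRH stimulation.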 The series is classed as cell-based. The note with it: 30 min at RT. On the technique in general: Time-resolved FRET reads energy transfer from a long-lived donor to a nearby acceptor.

A further series deals with T3, GHRHR (Homo sapiens, UniProt Q02643).
T3 construct: host or cells: CHO-K1 (cAMP Hunter eXpress GHRHR CHO-K1 GPCR assay kit)
T3 sequence (Q02643 23-423): T2 sequence (Q02643 23-423)
Kind of series: DiscoverX cAMP Hunter eXpress GHRHR CHO-K1 GPCR assay. It counts as cell-based. The note with it: for Selectivity: EC50 in VIPR1 CHO-K1 cells divided by EC50 in GHRHR CHO-K1 cells; for EC50: GHRHR CHO-K1 cells, cAMP.

The nature of series [3]: Solubility by measuring turbidity (OD600) in human plasma. It counts as physicochemical. How it is done: In some embodiments, a peptidomimetic macrocycle can be prepared based on solubility of the polypeptide, for example if the prepared peptidomimetic macrocycle is determined to be soluble based on visual examination of the turbidity of a solution of the polypeptide. In some embodiments, an aqueous solubility of the peptidomimetic macrocycle is determined by evaluating the turbidity of a solution comprising the peptidomimetic macrocycle. In some embodiments, a plasma solubility of the peptidomimetic macrocycle is determined by evaluating the turbidity of a solution comprising the peptidomimetic macrocycle.
Increasing amounts of SP-3 and SP-133 were added to human plasma. The OD600 of each of the solutions was then measured.

As usually defined, the EC50 is the concentration that produces a half-maximal response. `CC[C@H](C)[C@H](NC(=O)[C@H](C)NC(=O)[C@H](CC(=O)O)NC(=O)[C@H](C)NC(=O)[C@@H](N)Cc1ccc(O)cc1)C(=O)N[C@@H](Cc1ccccc1)C(=O)N[C@H](C(=O)N[C@@H](CC(N)=O)C(=O)N[C@@H](CO)C(=O)N[C@@H](Cc1ccc(O)cc1)C(=O)N[C@@H](CCCNC(=N)N)C(=O)N[C@@H](CCCCN)C(=O)N[C@H](C(=O)N[C@@H](CC(C)C)C(=O)NCC(=O)N[C@@H](CCC(N)=O)C(=O)N[C@@H](CC(C)C)C(=O)N[C@@H](CO)C(=O)N[C@@H](C)C(=O)N[C@@H](CCCNC(=N)N)C(=O)N[C@@H](CCCCN)C(=O)N[C@@H](CC(C)C)C(=O)N[C@@H](CC(C)C)C(=O)N[C@@H](CCC(N)=O)C(=O)N[C@@H](CC(=O)O)C(=O)N[C@H](C(=O)N[C@@H](CCSC)C(=O)N[C@@H](CO)C(=O)N[C@@H](CCCNC(=N)N)C(N)=O)[C@@H](C)CC)C(C)C)[C@@H](C)O` [SP-2, reference compound] yielded a concentration for a half-maximal effect (EC50) in series [1] of 0.1 to 1 nM. Further, in “Plasma compatibility”, the “Plasma Compatability” value was 4.6 mg/mL.
Turning to `CCCC[C@H](NC(=O)[C@@H](NC(=O)[C@H](CC(=O)O)NC(=O)[C@H](CCC(N)=O)NC(=O)[C@H](CC(C)C)NC(=O)[C@H](C)NC(=O)[C@H](CCCCN)NC(=O)[C@H](CCCNC(=N)N)NC(=O)[C@H](C)NC(=O)[C@H](CO)NC(=O)[C@]1(C)CCCC=CCCC[C@](C)(NC(=O)[C@H](CCCCN)NC(=O)[C@H](CCCNC(=N)N)NC(=O)[C@H](Cc2ccc(O)cc2)NC(=O)[C@H](CO)NC(=O)[C@H](C)NC(=O)[C@@H](NC(=O)[C@H](Cc2ccccc2)NC(=O)[C@@H](NC(=O)[C@H](C)NC(=O)[C@H](CC(=O)O)NC(=O)[C@H](C)NC(=O)[C@H](Cc2ccc(O)cc2)NC)[C@@H](C)CC)[C@@H](C)O)C(=O)N[C@@H](CC(C)C)C(=O)N[C@@H](C)C(=O)N[C@@H](CCC(N)=O)C(=O)N1)[C@@H](C)CC)C(=O)N[C@@H](CO)C(=O)N[C@@H](CCCNC(=N)N)C(N)=O` [SP-12] (H-[NMeY]ADAIFTASYRK[S5]LAQ[S5]SARKALQDI[Nle]SR-NH2; staple 13-17), the 50% effective concentration (EC50) was not above 1 nM in series [2], less than 0.1 nM in series [1] and less than 0.1 nM at GHRHR. Moreover, at GHRHR, the Selectivity result is on record as “+ (+=<5)”. Besides, in the series “Plasma compatibility”, the “Plasma Compatability” value was determined as 1.6 mg/mL.
Turning to `CCCC[C@H](NC(=O)[C@@H](NC(=O)[C@H](CC(=O)O)NC(=O)[C@H](CCC(N)=O)NC(=O)[C@H](CC(C)C)NC(=O)[C@H](C)NC(=O)[C@H](CCCCN)NC(=O)[C@H](CCCNC(=N)N)NC(=O)[C@H](C)NC(=O)[C@H](CO)NC(=O)[C@]1(C)CCCC=CCCC[C@](C)(NC(=O)[C@H](CCCCN)NC(=O)[C@H](CCCNC(=N)N)NC(=O)[C@H](Cc2ccc(O)cc2)NC(=O)[C@H](CO)NC(=O)[C@H](CCC(N)=O)NC(=O)[C@@H](NC(=O)[C@H](Cc2ccccc2)NC(=O)[C@@H](NC(=O)[C@H](C)NC(=O)[C@H](CC(=O)O)NC(=O)[C@@H](C)NC(=O)[C@H](Cc2ccc(O)cc2)NC)[C@@H](C)CC)[C@@H](C)O)C(=O)N[C@@H](CC(C)C)C(=O)N[C@@H](C)C(=O)N[C@@H](CCC(N)=O)C(=O)N1)[C@@H](C)CC)C(=O)N[C@@H](CO)C(=O)N[C@@H](CCCNC(=N)N)C(N)=O` [SP-69] (H-[NMeY][dA]DAIFTQSYRK[S5]LAQ[S5]SARKALQDI[Nle]SR-NH2; staple 13-17), in series [1], the half-maximal effective concentration (EC50) lay within 0.1 to 1 nM. Further, on GHRHR, the Selectivity entry was “+ (+=<5)” and the EC50 lay in the range of 0.1 to 1 nM. Also, the “Plasma Compatability” value in the series “Plasma compatibility” was 1.6 mg/mL.
With “SP-133: GHRH peptidomimetic macrocycle (YADAIFTASYRKALAQASARKALQDILSR; not fully specified; D-residues; non-natural residues; cyclised or stapled)”, the EC50 in series [1] is more than 25 nM; with GHRHR, 1 to 10 nM. Also, the Selectivity entry with GHRHR was “++ (++=>5-15)”. Moreover, the OD600 in series [3] (7 mg/mL), in series [3] (10 mg/mL), in series [3] (12 mg/mL), in series [3] (16 mg/mL), in series [3] (21 mg/mL) and in series [3] (27 mg/mL) was 0.0 in each case. For the same compound, the OD600 in series [3] (35 mg/mL), in series [3] (46 mg/mL), in series [3] (59 mg/mL), in series [3] (77 mg/mL) and in series [3] (100 mg/mL) was 0.0 each time. Also, the turbidity entry in series [3] (up to 100 mg/mL) was “no turbidity”. Moreover, the “Plasma Compatability” value in “Plasma compatibility” is recorded as more than 10 mg/mL.
